From the supplement of paper PMC5998384

How the values were obtained:
HeLa Kyoto [1] = assay: solubility in G1/S (NP-40 vs SDS abundance) (log2 ratio); higher = more soluble; details: cell cycle stage: G1/S
HeLa Kyoto [2] = assay: melting temperature (median over replicates), in situ; higher = more thermally stable
HeLa Kyoto [3] = assay: solubility change mitosis vs G1/S (difference of NP-40 vs SDS log2 ratios) (log2 ratio difference); higher = more soluble in mitosis
HeLa Kyoto [4] = assay: thermal stability score vs G1/S (z-score of summed log2 fold changes over temperatures); higher = more thermally stable than in G1/S
[5] = cell cycle stage: early G1 (4.5 h after nocodazole release)
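Wherever melting temperature (median over replicates), in situ is given: HeLa Kyoto cells synchronized by double thymidine or nocodazole block, proteins quantified by TMT10plex mass spectrometry, three independent biological replicates.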
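Wherever solubility change mitosis vs G1/S (difference of NP-40 vs SDS log2 ratios) is given: synchronized HeLa Kyoto cells (double thymidine block for G1/S, nocodazole release for mitosis), protein amounts in NP-40 versus SDS lysates quantified by mass spectrometry, three biological replicates.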
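Wherever solubility in G1/S (NP-40 vs SDS abundance) is given: HeLa Kyoto cells arrested at G1/S by double thymidine block, proteins quantified by TMT10plex mass spectrometry in mild NP-40 versus SDS extracts, three biological replicates.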
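Wherever thermal stability score vs G1/S (z-score of summed log2 fold changes over temperatures) is given: synchronized HeLa Kyoto cells, proteins quantified by TMT10plex mass spectrometry, three biological replicates, mitosis taken 0.5 h after nocodazole release, G1/S directly after double thymidine block.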

| Sequence | solubility in G1/S (log2) (HeLa Kyoto [1]) | melting temperature (HeLa Kyoto [2]; cell cycle stage: G1/S) | melting temperature (HeLa Kyoto [2]; cell cycle stage: mitosis) | solubility change mitosis (log2) (HeLa Kyoto [3]) | thermal stability score (HeLa Kyoto [4]; [5]) | thermal stability score (HeLa Kyoto [4]; cell cycle stage: mitosis) |
| --- | --- | --- | --- | --- | --- | --- |
| MGTDSRAAKALLARARTLHLQTGNLLNWGRLRKKCPSTHSEELHDCIQKTLNEWSSQINPDLVREFPDVLECTVSHAVEKINPDEREEMKVSAKLFIVESNSSSSTRSAVDMACSVLGVAQLDSVIIASPPIEDGVNLSLEHLQPYWEELENLVQSKKIVAIGTSDLDKTQLEQLYQWAQVKPNSNQVNLASCCVMPPDLTAFAKQFDIQLLTHNDPKELLSEASFQEALQESIPDIQAHEWVPLWLLRYSVIVKSRGIIKSKGYILQAKRRGS [GCLM] | 0.229 | 48.3 °C | 49 °C | -0.0843 | 0.373 | 1.08 |
| MGTKAQVERKLLCLFILAILLCSLALGSVTVHSSEPEVRIPENNPVKLSCAYSGFSSPRVEWKFDQGDTTRLVCYNNKITASYEDRVTFLPTGITFKSVTREDTGTYTCMVSEEGGNSYGEVKVKLIVLVPPSKPTVNIPSSATIGNRAVLTCSEQDGSPPSEYTWFKDGIVMPTNPKSTRAFSNSSYVLNPTTGELVFDPLSASDTGEYSCEARNGYGTPMTSNAVRMEAVERNVGVIVAAVLVTLILLGILVFGIWFAYSRGHFDRTKKGTSSKKVIYSQPSARSEGEFKQTSSFLV [F11R] | 0.284 | 58.9 °C | 59.5 °C | -0.139 | -2.07 | -2.09 |
| MGTPASGRKRTPVKDRFSAEDEALSNIAREAEARLAAKRAARAEARDIRMRELERQQKEYSLHSFDRKWGQIQKWLEDSERARYSHRSSHHRPYLGVEDALSIRSVGSHRYDMFKDRSSRLSSLNHSYSHSHGMKKRSSDSHKDLLSGLYFDQRNYSSLRHSKPTSAYYTRQSSSLYSDPLATYKSDRASPTANSGLLRSASLASLYNGGLYNPYGPRTPSECSYYSSRISSARSSPGFTNDDTASIVSSDRASRGRRESVVSAADYFSRSNRRGSVVSEVDDISIPDLSSLDEKSDKQYAENYTRPSSRNSASATTPLSGNSSRRGSGDTSSLIDPDTSLSELRDIYDLKDQIQDVEGRYMQGLKELKESLSEVEEKYKKAMVSNAQLDNEKNNLIYQVDTLKDVIEEQEEQMAEFYRENEEKSKELERQKHMCSVLQHKMEELKEGLRQRDELIEEKQRMQQKIDTMTKEVFDLQETLLWKDKKIGALEKQKEYIACLRNERDMLREELADLQETVKTGEKHGLVIIPDGTPNGDVSHEPVAGAITVVSQEAAQVLESAGEGPLDVRLRKLAGEKEELLSQIRKLKLQLEEERQKCSRNDGTVGDLAGLQNGSDLQFIEMQRDANRQISEYKFKLSKAEQDITTLEQSISRLEGQVLRYKTAAENAEKVEDELKAEKRKLQRELRTALDKIEEMEMTNSHLAKRLEKMKANRTALLAQQ [LRRFIP2] | 0.672 | 53.3 °C | 53.7 °C | 0.251 | -3.39 | -4.14 |
| MGTPKPRILPWLVSQLDLGQLEGVAWVNKSRTRFRIPWKHGLRQDAQQEDFGIFQAWAEATGAYVPGRDKPDLPTWKRNFRSALNRKEGLRLAEDRSKDPHDPHKIYEFVNSGVGDFSQPDTSPDTNGGGSTSDTQEDILDELLGNMVLAPLPDPGPPSLAVAPEPCPQPLRSPSLDNPTPFPNLGPSENPLKRLLVPGEEWEFEVTAFYRGRQVFQQTISCPEGLRLVGSEVGDRTLPGWPVTLPDPGMSLTDRGVMSYVRHVLSCLGGGLALWRAGQWLWAQRLGHCHTYWAVSEELLPNSGHGPDGEVPKDKEGGVFDLGPFIVDLITFTEGSGRSPRYALWFCVGESWPQDQPWTKRLVMVKVVPTCLRALVEMARVGGASSLENTVDLHISNSHPLSLTSDQYKAYLQDLVEGMDFQGPGES [IRF3] | -0.0358 | 51.4 °C | 51.7 °C | 0.174 | 0.111 | 1.23 |
| MGTRDDEYDYLFKVVLIGDSGVGKSNLLSRFTRNEFNLESKSTIGVEFATRSIQVDGKTIKAQIWDTAGQERYRAITSAYYRGAVGALLVYDIAKHLTYENVERWLKELRDHADSNIVIMLVGNKSDLRHLRAVPTDEARAFAEKNNLSFIETSALDSTNVEEAFKNILTEIYRIVSQKQIADRAAHDESPGNNVVDISVPPTTDGQKPNKLQCCQNL [RAB11B] | 0.136 | 57.1 °C | 57.5 °C | -0.0727 | 0.344 | -0.699 |
| MGVEGCTKCIKYLLFVFNFVFWLAGGVILGVALWLRHDPQTTNLLYLELGDKPAPNTFYVGIYILIAVGAVMMFVGFLGCYGAIQESQCLLGTFFTCLVILFACEVAAGIWGFVNKDQIAKDVKQFYDQALQQAVVDDDANNAKAVVKTFHETLDCCGSSTLTALTTSVLKNNLCPSGSNIISNLFKEDCHQKIDDLFSGKLYLIGIAAIVVAVIMIFEMILSMVLCCGIRNSSVY [CD81] | 0.0932 | 56.1 °C | – | -0.0908 | 0.287 | -0.69 |
| MGVWLNKDDYIRDLKRIILCFLIVYMAILVGTDQDFYSLLGVSKTASSREIRQAFKKLALKLHPDKNPNNPNAHGDFLKINRAYEVLKDEDLRKKYDKYGEKGLEDNQGGQYESWNYYRYDFGIYDDDPEIITLERREFDAAVNSGELWFVNFYSPGCSHCHDLAPTWRDFAKEVDGLLRIGAVNCGDDRMLCRMKGVNSYPSLFIFRSGMAPVKYHGDRSKESLVSFAMQHVRSTVTELWTGNFVNSIQTAFAAGIGWLITFCSKGGDCLTSQTRLRLSGMLDGLVNVGWMDCATQDNLCKSLDITTSTTAYFPPGATLNNKEKNSILFLNSLDAKEIYLEVIHNLPDFELLSANTLEDRLAHHRWLLFFHFGKNENSNDPELKKLKTLLKNDHIQVGRFDCSSAPDICSNLYVFQPSLAVFKGQGTKEYEIHHGKKILYDILAFAKESVNSHVTTLGPQNFPANDKEPWLVDFFAPWCPPCRALLPELRRASNLLYGQLKFGTLDCTVHEGLCNMYNIQAYPTTVVFNQSNIHEYEGHHSAEQILEFIEDLMNPSVVSLTPTTFNELVTQRKHNEVWMVDFYSPWCHPCQVLMPEWKRMARTLTGLINVGSIDCQQYHSFCAQENVQRYPEIRFFPPKSNKAYHYHSYNGWNRDAYSLRIWGLGFLPQVSTDLTPQTFSEKVLQGKNHWVIDFYAPWCGPCQNFAPEFELLARMIKGKVKAGKVDCQAYAQTCQKAGIRAYPTVKFYFYERAKRNFQEEQINTRDAKAIAALISEKLETLRNQGKRNKDEL [DNAJC10] | -0.000819 | 54.7 °C | 55.4 °C | -0.125 | 3.17 | 4.65 |
| MHFSIPETESRSGDSGGSAYVAYNIHVNGVLHCRVRYSQLLGLHEQLRKEYGANVLPAFPPKKLFSLTPAEVEQRREQLEKYMQAVRQDPLLGSSETFNSFLRRAQQETQQVPTEEVSLEVLLSNGQKVLVNVLTSDQTEDVLEAVAAKLDLPDDLIGYFSLFLVREKEDGAFSFVRKLQEFELPYVSVTSLRSQEYKIVLRKSYWDSAYDDDVMENRVGLNLLYAQTVSDIERGWILVTKEQHRQLKSLQEKVSKKEFLRLAQTLRHYGYLRFDACVADFPEKDCPVVVSAGNSELSLQLRLPGQQLREGSFRVTRMRCWRVTSSVPLPSGSTSSPGRGRGEVRLELAFEYLMSKDRLQWVTITSPQAIMMSICLQSMVDELMVKKSGGSIRKMLRRRVGGTLRRSDSQQAVKSPPLLESPDATRESMVKLSSKLSAVSLRGIGSPSTDASASDVHGNFAFEGIGDEDL [SNX17] | 0.103 | 50.9 °C | 51.4 °C | -0.263 | 1.32 | 0.59 |
| MHKAGLLGLCARAWNSVRMASSGMTRRDPLANKVALVTASTDGIGFAIARRLAQDGAHVVVSSRKQQNVDQAVATLQGEGLSVTGTVCHVGKAEDRERLVATAVKLHGGIDILVSNAAVNPFFGSIMDVTEEVWDKTLDINVKAPALMTKAVVPEMEKRGGGSVVIVSSIAAFSPSPGFSPYNVSKTALLGLTKTLAIELAPRNIRVNCLAPGLIKTSFSRMLWMDKEKEESMKETLRIRRLGEPEDCAGIVSFLCSEDASYITGETVVVGGGTPSRL [DHRS4] | -0.159 | 53.4 °C | 53.5 °C | 0.0427 | -0.643 | -0.663 |
| MHPLQCVLQVQRSLGWGPLASVSWLSLRMCRAHSSLSSTMCPSPERQEDGARKDFSSRLAAGPTFQHFLKSASAPQEKLSSEVEDPPPYLMMDELLGRQRKVYLETYGCQMNVNDTEIAWSILQKSGYLRTSNLQEADVILLVTCSIREKAEQTIWNRLHQLKALKTRRPRSRVPLRIGILGCMAERLKEEILNREKMVDILAGPDAYRDLPRLLAVAESGQQAANVLLSLDETYADVMPVQTSASATSAFVSIMRGCDNMCSYCIVPFTRGRERSRPIASILEEVKKLSEQVFLPPRPPKVLGLQGLKEVTLLGQNVNSFRDNSEVQFNSAVPTNLSRGFTTNYKTKQGGLRFAHLLDQVSRVDPEMRIRFTSPHPKDFPDEVLQLIHERDNICKQIHLPAQSGSSRVLEAMRRGYSREAYVELVHHIRESIPGVSLSSDFIAGFCGETEEDHVQTVSLLREVQYNMGFLFAYSMRQKTRAYHRLKDDVPEEVKLRRLEELITIFREEATKANQTSVGCTQLVLVEGLSKRSATDLCGRNDGNLKVIFPDAEMEDVNNPGLRVRAQPGDYVLVKITSASSQTLRGHVLCRTTLRDSSAYC [CDK5RAP1] | -0.0387 | 50.6 °C | 51 °C | -0.0868 | 0.115 | 0.734 |
| MHRDSCPLDCKVYVGNLGNNGNKTELERAFGYYGPLRSVWVARNPPGFAFVEFEDPRDAADAVRELDGRTLCGCRVRVELSNGEKRSRNRGPPPSWGRRPRDDYRRRSPPPRRRSPRRRSFSRSRSRSLSRDRRRERSLSRERNHKPSRSFSRSRSRSRSNERK [SRSF3] | -0.0567 | 55.3 °C | 54.2 °C | 0.503 | -0.84 | -4.46 |
| MHRRGVGAGAIAKKKLAEAKYKERGTVLAEDQLAQMSKQLDMFKTNLEEFASKHKQEIRKNPEFRVQFQDMCATIGVDPLASGKGFWSEMLGVGDFYYELGVQIIEVCLALKHRNGGLITLEELHQQVLKGRGKFAQDVSQDDLIRAIKKLKALGTGFGIIPVGGTYLIQSVPAELNMDHTVVLQLAEKNGYVTVSEIKASLKWETERARQVLEHLLKEGLAWLDLQAPGEAHYWLPALFTDLYSQEITAEEAREALP [SNF8] | 0.377 | 52.9 °C | 51.5 °C | 0.0161 | -0.788 | -0.397 |
